According to the supplement of paper PMC9170038:

Test system: MS2 coat protein
Assay: apparent KD of MS2 coat protein; designed switch direction (-1 OFF switch, 1 ON switch): 1; higher = weaker reporter binding
Details: Eterna round: R98
Protocol: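 RNA-MaP: designed FMN/MS2 RNA switches (84 nt design region) are transcribed on-chip within common flanks and titrated with SNAP-549-labelled MS2 coat protein (about 1-3000 nM) in 100 mM Tris pH 7.5, 80 mM KCl, 4 mM MgCl2, without or with 200 uM FMN. Median apparent KD per design; activation ratio = KD,OFF / KD,ON.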

Sequence | apparent KD of MS2 coat protein (input ligand: FMN 200 uM) [nM] | apparent KD of MS2 coat protein (input ligand: none) [nM]
CGCUGUAAUGCAGGAUAUGCAUUGGAUUACAAUGCAGAAGGGCGAUUACAUGAGGAUCACCCAUGUAUAAACAGUGAAGAAGAG [Hyphema mod 5] | 26.9 | 51.6
AAAUAAAAUAUAGGAUAUGGAAACAUGAGGAUCACCCAUGUAAAAUAAGAUAAAUAAUAAUAUAACCAGAAGGAUAAAAUAUAA [LRO003_SS NG 2] | 53.3 | 30
CGCUGUCGCGCAGGAUAUGCAUUGGAUUACAAUGCAGAAGGGCGAUUACAUGAGGAUCACCCAUGUGUAGACAGUGAAGAAGAG [SameState #31 NG1] | 28.4 | 253
UCACUCACGUUAGGAUAUGGAUCGGAAAACGAUCCAGAAGGAACCUGCAAACACGAGGAUCACCCGUGUUCCAAUAACGAGUGA [SameSame 5 - Jieux - Same State NG 1] | 24.7 | 20.3
UUAUAAAAUAUAGGAUAUGGAAACAUGAGGAUCACCCAUGUAUGAUAAGAUAAAUUAUGAUAUAGCCAGAAGGAUACAAUAUAA [LRO010_SS NG 2] | 35.4 | 32.9
CUCGUUGUCACAGGAUAUGCCGCCGGACAUGAGGAUCACCCAUGUACCCGCUUGAGAAAACUGCGGUAGAAGGGUGACUUAUAA [Erriisin] | 46 | 110
GACGAAUUCUUAGGAUAUCGAGUGGAAUACACUCGAGAAGGAAGAUAUACCUGAGGAUCACCCAGGUAAAACUGGACGUCAAUA [Same State NG1 - A3C, U17G Submission 8D A68U] | 46.7 | 193
CCUGACACUUGAGGAUAUGCUCAGGAAUACUGAGCAGAAGGCAGGGAAACCUGAGGAUCACCCAGGUAAGUCAGGAAUAAUAAA [Same State NG1 - A3C, U17G Submission 2A] | 21.9 | 62
ACCGGCACUUACAUGAGGAUCACCCAUGUGUGCAAUCGGACACAGGAUAUCCAUGGUAAGUAUCGGGAGAAGGGUGGAAAGAAA [Reustion] | 258 | 142
GCUUGCGACGCAGGAUAUGGGUGCCUGAACACGAGGAUCACCCGUGUAGAGGAAGCGAAAAGCUCUCAGAAGGGCGUCGCAGGC [United States 6 - Jieux - Same State NG 2] | 19.8 | 50.5
CUAAUAUAGUGAGGAUAUGCACAGGAUCACCGUGUAGAAGGCAUCAGGUAGAAGGUGCAGAGGAUCACCCUGUAAGGAUAUACA [pwkr2 ssNG1 DX.5] | 102 | 385
AAAACAUGAGGAUCACCCAUGUAAUGAUCGGUUAAUAGAAGUGAGGAUAUGCUUAAAAUAAGGUAGCAGAAGGCACUGGGUACA [JR_SSNG3_Sub041] | 31.3 | 28.1
AGAACAUGAGGAUCACCCAUGUGAAGGUCGGCGUAUAAGGGUGAGGAUAUGCUUAAAAUAAGGAAGCAGAAGGUGCUUGGUGCG [SameState #79 NG3] | 102 | 137
CUAGCAUACCGAGGAUAUUCAUAUAAUAAAUAAACAUGAGGAUCACCCAUGUGGCGAAAGCCUAGGGAGAAGGCGGAAUGCUAU [salish99_SSNG2_r2_111] | 23.8 | 210
AUCAAUCACAUAGGAUAUAGAAUAUUAUAUUUUUACAUGAGGAUCACCCAUGUUUUAUUGGGAUUCUAGAAGGAUGAGUAAUAA [JR_SSNG2_Sub055Nu] | 96.9 | 147
UCGGUUUUCGCAGGAUAUGGAGGAUACUCCCACAUGAGCAUCAGCCAUGUCUGCAUGGAGGAAGGCCAGAAGGGCGAGAACCGA [United States 2 - Jieux - Same State NG 2] | 13.5 | 31.6
CAACAAUGGUGAGGAUAUGCAAAGGAUCACCUUGUAGAAGGCAUCAGGUAGAAGGUGCAGAGGAUCACCCUGUAAGGAUAUAUC [pwkr2 ssNG1 DX.21] | 69.9 | 176
